Results as given in patent publication US20240301062A1 (BEIGENE SWITZERLAND, published 2024).
Where a chain is given by its changes, count along the chain named. In names and notes the source's numbering stands. Where two headings read alike, the source gives them in different places.

Experiments:
cyno CLDN6 [1] = target: T1, cyno CLDN6 (cyno); assay: flow cytometry on CHOK1/cyno CLDN6 cells, MFI(PE)
T1 construct: whole, on cells; also called cynomolgus CLDN6

human claudin 6 (CLDN6) [2] = target: T2, human claudin 6 (CLDN6) (human, UniProt P56747 1-220); assay: FACS, PA-1 cells (endogenous CLDN6)
T2 construct: also called human CLDN6; hCLDN6
T2 sequence: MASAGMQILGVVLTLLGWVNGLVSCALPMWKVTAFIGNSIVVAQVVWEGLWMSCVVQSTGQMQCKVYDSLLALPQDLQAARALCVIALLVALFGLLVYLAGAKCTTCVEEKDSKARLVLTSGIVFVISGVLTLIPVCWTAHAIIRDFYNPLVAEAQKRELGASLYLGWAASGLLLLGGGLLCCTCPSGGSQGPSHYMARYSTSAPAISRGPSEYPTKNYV
Method: (§1) For affinity determination, CLDN6 over-expressing HEK293T cells and cancer cell line PA-1 which express high levels of human CLDN6 were used to evaluate the binding activity of BG87P related engineering variants. Live cells were seeded in 96-well plate, and were incubated with a series of dilutions of chBG87P and engineered variants thereof. Goat anti-human IgG was used as second antibody to detect antibody binding to the cell surface. EC50 values for dose-dependent binding to CLDN6 expressing cell lines were determined by fitting the dose-response data to the four-parameter logistic model with GraphPad Prism. Cell binding activity of 1st round of BG87P humanization variants against HEK293T/human CLDN6 were compared to chBG87P and shown in FIG. 1A.

human claudin 6 (CLDN6) [3] = target: T2, human claudin 6 (CLDN6); assay: FACS, HEK293T/human CLDN6 cells
Method: as §1
Beginning with the chBG87P antibody and BG87P-Bz0, several additional amino acid changes in the CDR regions of both VH and VL were made to further improve the biophysical properties for therapeutics use in human. The considerations included removing post translational modifications (PTM), improved heat stability (Tm), while maintaining binding activities, the resulted variants are BG87P-m1 (VH SEQ ID NO: 31 and VL SEQ ID NO: 8), BG87P-m2 (VH SEQ ID NO: 32 and VL SEQ ID NO: 8), BG87P-m3 (VH SEQ ID NO: 33 and VL SEQ ID NO: 8), and BG87P-m4 (VH SEQ ID NO: 34 and VL SEQ ID NO: 8) and BG87P-m5 (VH SEQ ID NO: 35 and VL SEQ ID NO: 14), BG87P-m6 (VH SEQ ID NO: 36 and VL SEQ ID NO 14), BG87P-m7 (VH SEQ ID NO: 37 and VL SEQ ID NO: 14), and BG87P-m8 (VH SEQ ID NO: 38 and VL SEQ ID NO: 14). Cell binding activity of chBG87P and BG87P-Bz0 related PTM removal variants against HEK293T/human CLDN6 was compared with chBG87P and BG87-Bz0, respectively ([…]). Cell binding affinity (EC50) and Emax (MFI) was normalized to chBG87P for directly comparison and ranking (Table 7).

cyno CLDN6 [4] = target: T1, cyno CLDN6; assay: FACS, HEK293T_cyno-CLDN6 cells
human claudin 6 (CLDN6) [5] = target: T2, human claudin 6 (CLDN6); assay: FACS, HEK293-hCLDN6 cells
human claudin 6 (CLDN6) [6] = target: T2, human claudin 6 (CLDN6); assay: FACS, HEK293T-hCLDN6 cells
human claudin 6 (CLDN6) [7] = target: T2, human claudin 6 (CLDN6); assay: flow cytometry on HEK293T/human CLDN6 cells, goat anti-human IgG secondary, MFI(PE)
Method: as §1

cyno CLDN6 [8] = target: T1, cyno CLDN6; assay: FACS, HEK293T-cyno-CLDN6 cells
human claudin 9 (CLDN9) = target: T3, human claudin 9 (CLDN9) (human, UniProt O95484 1-217); assay: flow cytometry on HEK293T/human CLDN9 cells, MFI(PE)
T3 construct: also called human CLDN9
T3 sequence: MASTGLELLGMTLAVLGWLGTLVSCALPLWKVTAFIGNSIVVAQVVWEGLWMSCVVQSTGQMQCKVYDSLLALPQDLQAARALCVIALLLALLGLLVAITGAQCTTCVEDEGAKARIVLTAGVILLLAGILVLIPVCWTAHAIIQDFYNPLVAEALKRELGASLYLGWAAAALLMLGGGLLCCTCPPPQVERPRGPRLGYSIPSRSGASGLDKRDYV

[9] = target: T4, human native CD3 on live cells (HuT78, Jurkat) (human, UniProt P07766 23-207; P09693 23-182; P04234 22-171); assay: FACS, HuT78 cells, Test 1
T4 construct: whole, on cells; also called human CD3
T4 sequence (P07766 23-207, chain 1 of 3): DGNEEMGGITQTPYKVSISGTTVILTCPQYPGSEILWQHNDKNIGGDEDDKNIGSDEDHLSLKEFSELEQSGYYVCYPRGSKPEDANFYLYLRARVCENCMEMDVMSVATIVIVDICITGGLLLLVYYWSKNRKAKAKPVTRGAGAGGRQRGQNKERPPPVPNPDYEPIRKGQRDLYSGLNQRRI
T4 sequence (P09693 23-182, chain 2 of 3): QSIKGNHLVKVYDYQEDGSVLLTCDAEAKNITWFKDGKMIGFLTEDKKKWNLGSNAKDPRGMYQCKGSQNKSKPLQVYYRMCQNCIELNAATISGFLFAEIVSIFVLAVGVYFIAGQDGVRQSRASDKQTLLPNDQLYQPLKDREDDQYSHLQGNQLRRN
T4 sequence (P04234 22-171, chain 3 of 3): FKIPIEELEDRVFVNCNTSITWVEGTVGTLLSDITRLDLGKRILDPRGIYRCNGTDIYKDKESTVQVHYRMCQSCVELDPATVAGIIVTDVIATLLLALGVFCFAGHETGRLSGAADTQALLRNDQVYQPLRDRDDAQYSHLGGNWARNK
Method: (§2) For affinity determination, antibodies were captured by anti-human Fc surface, and used in the affinity-assay based on surface plasmon resonance (SPR) technology. The binding activity of humanized sp34 to bind native CD3 on live cells was evaluated using HuT78 cells in a FACS based assay. Live HuT78 cells were seeded in 96-well plate, and were incubated with a series of dilutions of chimeric or humanized sp34. Mouse anti-Human IgG was used as second antibody to detect antibody binding to the cell surface. EC50 values for dose-dependent binding to human native CD3 were determined by fitting the dose-response data to the four-parameter logistic model with GraphPad Prism.

[10] = target: T4, human native CD3 on live cells (HuT78, …); assay: flow cytometry on live HuT78 cells, mouse anti-human IgG secondary, MFI
Method: as §2

CD3ε (SPR analyte) = CD3ε (SPR analyte) (UniProt P07766 23-126, limits assumed); assay: SPR, scFv-Fc
CD3ε (SPR analyte), sequence (P07766 23-126 limits assumed): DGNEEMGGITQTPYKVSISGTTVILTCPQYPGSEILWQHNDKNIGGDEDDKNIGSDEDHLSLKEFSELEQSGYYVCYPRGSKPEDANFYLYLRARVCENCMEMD

[11] = target: T4, human native CD3 on live cells (HuT78, …); assay: flow cytometry on live HuT78 cells, mouse anti-human IgG secondary, MFI; remark: listed apart in the source
Method: as §2

[12] = target: T4, human native CD3 on live cells (HuT78, …); assay: FACS, HuT78 cells, Test 2
Method: as §2

[13] = target: T4, human native CD3 on live cells (HuT78, …); assay: FACS, HuT78 cells, Test 3
Method: as §2

[14] = target: T4, human native CD3 on live cells (HuT78, …); assay: flow cytometry on live HuT78 cells, mouse anti-human IgG secondary, MFI; remark: listed apart in the source
Method: as §2

B1: chimeric BG87P antibody (chBG87P) (antibody, V domains shown)
VH: QIQLQQSGPELVKPGASVKISCKASGYSFTDYHINWVKQRPGQGLEWIGWIYPGSGYTKYNEKFKVKATLTVDTSSSTAYMHLTSLTSEDSAVYFCARSGIYHYVSSYYFDHWGQGTTLTVSS
VL: DIVMTQSHTFMSTSVGDRVSITCKASQDVGTAVAWYQQKPGQSPKLLIYWASTRHTGVPDRFTGSGSGTDFTLTISNVQSEDLADYFCQQYSSYTFGGGTKLEIK
EC50 (read off the curve) (cyno CLDN6 [1]): ~7 nM | EC50 (human claudin 6 (CLDN6) [2]): 8.33 nM | Emax ratio to BG87P (human claudin 6 (CLDN6) [2]): 1 ratio | Top MFI Mean (human claudin 6 (CLDN6) [2]): 125000 MFI | EC50 (human claudin 6 (CLDN6) [3]): 2.72 nM | Emax ratio to BG87P (human claudin 6 (CLDN6) [3]): 1 ratio | Top MFI Mean (human claudin 6 (CLDN6) [3]): 192000 MFI | EC50 (cyno CLDN6 [4]): 7.2 nM | FACS-Ec50 ratio to BG87P (human claudin 6 (CLDN6) [5]): 1 ratio | FACS Emax ratio to BG87P (human claudin 6 (CLDN6) [6]): 1 ratio | EC50 (read off the curve) (human claudin 6 (CLDN6) [7]): ~10 nM | FACS Emax ratio to BG87P (cyno CLDN6 [8]): 1 ratio | binding result (human claudin 9 (CLDN9)): no binding (tested: about 250 nM (log 2.4))

B2: humanized scFv BG562P (scFv-Fc) (Fc fusion)
scFv: EVQLVESGGGLVQPGGSLRLSCAASGFTFNTYAMNWVRQAPGKGLEWVARIRSKYNNYATYYADSVKDRFTISRDDAKNSLYLQMNSLRAEDTAVYYCVRHGNFGNSYVSWFAYWGQGTLVTVSSGGGGSGGGGSGGGGSEIVVTQSPATLSVSPGERATLSCRSSTGAVTTSNYANWVQQKPGQAPRGLIGGTNKRAPGIPARFSGSLSGDEATLTISSLQSEDFAVYYCALWYSNLWVFGGGTKVEIK
notes: BG561P with L4V in VL; not shown: human IgG1 Fc region, scFv fused to its N-terminus
EC50 [9]: 2.85 nM | EC50 (read off the curve) [10]: ~0.3 µg/mL | Kd (CD3ε (SPR analyte)): 3.16 nM | koff (CD3ε (SPR analyte)): 0.000367 s⁻¹ | kon (CD3ε (SPR analyte)): 116000 M⁻¹ s⁻¹ | EC50 (read off the curve) [11]: ~0.1 µg/mL | EC50 [12]: 2.85 nM

B3: humanized scFv BG564P (scFv-Fc) (Fc fusion)
scFv: B2 scFv with N30S, A49G, D68G, N106S
notes: BG563P with N30S and N100S in VH; not shown: human IgG1 Fc region, scFv fused to its N-terminus
Kd (CD3ε (SPR analyte)): 1.39 nM | koff (CD3ε (SPR analyte)): 0.000576 s⁻¹ | kon (CD3ε (SPR analyte)): 414000 M⁻¹ s⁻¹ | EC50 [13]: 1.23 nM | EC50 (read off the curve) [14]: ~0.1 µg/mL
